Target: SARS-COV-2 Spike Protein Native RBD (UniProt P0DTC2 333-526)
Assay: BLI

B1: REGN10933 IgG (antibody, V domains shown)
VH: QVQLVESGGGLVKPGGSLRLSCAASGFTFSDYYMSWIRQAPGKGLEWVSYITYSGSTIYYADSVKGRFTISRDNAKSSLYLQMNSLRAEDTAVYYCARDRGTTMVPFDYWGQGTLVTVSS
VL: DIQMTQSPSSLSASVGDRVTITCQASQDITNYLNWYQQKPGKAPKLLIYAASNLETGVPSRFSGSGSGTDFTFTISGLQPEDIATYYCQQYDNLPLTFGGGTKVEIKR
Binder B1 has a Kd of 1.8 nM.

Source: patent US20250281600A1 (published 2025)
